Measurements: US20090181459A1 (published 2009)

T1: mouse glucocorticoid-induced tumor necrosis factor receptor (mGITR), expressed on the cell surface (mouse, UniProt O35714 20-228)
T1 sequence (looked up): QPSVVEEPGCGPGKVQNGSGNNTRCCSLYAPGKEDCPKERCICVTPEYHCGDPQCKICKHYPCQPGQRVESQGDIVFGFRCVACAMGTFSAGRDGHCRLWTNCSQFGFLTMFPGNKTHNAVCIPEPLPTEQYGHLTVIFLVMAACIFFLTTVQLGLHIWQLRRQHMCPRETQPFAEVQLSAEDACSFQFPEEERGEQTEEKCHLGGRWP


Columns and labels:
[1] = molecular target: mouse glucocorticoid-induced TNF receptor ligand (mGITRL), expressed on the cell surface (mouse) (UniProt Q7TS55); experiment: flow cytometry, spleen cells gated on F4/80+ macrophages; isotype control background
[2] = molecular target: mouse glucocorticoid-induced tumor necrosis factor receptor (mGITR), expressed on the cell surface (mouse) (UniProt O35714); experiment: flow cytometry on Th2 clone R2.4; isotype control background
[3] = molecular target: mouse glucocorticoid-induced TNF receptor ligand (mGITRL), expressed on the cell surface (mouse) (UniProt Q7TS55); experiment: flow cytometry, peritoneal cells gated on F4/80+; isotype control background
[4] = molecular target: mouse glucocorticoid-induced tumor necrosis factor receptor (mGITR), expressed on the cell surface (mouse) (UniProt O35714); experiment: flow cytometry on Th1 clone R2.2; isotype control background
[5] = molecular target: mouse glucocorticoid-induced TNF receptor ligand (mGITRL), expressed on the cell surface (mouse) (UniProt Q7TS55); experiment: flow cytometry, spleen cells gated on B220+ B cells; isotype control background
[6] = molecular target: T1, mouse glucocorticoid-induced tumor …; experiment: cell-based or functional assay

Median fluorescence intensity (MFI) [1] | MFI [3] | Median fluorescence intensity (MFI) [5] | Molecule | Median fluorescence intensity (MFI) [2] | Median fluorescence intensity (MFI) [4] | Luciferase activity (NF-kB reporter plasmid), 48-h incubation [6] [fold]
25.4 | 255 | 7.7 | isotype control antibody (rat anti-canine CD8 antibody, IgG1) | 50.5 | 35.2 | –
– | – | – | mouse glucocorticoid-induced TNF receptor ligand (mGITRL), expressed on the cell surface (ligand) MEEMPLRESSPQRAERCKKSWLLCIVALLLMLLCSLGTLIYTSLKPTAIESCMVKFELSSSKWHMTSPKPHCVNTTSDGKLKILQSGTYLIYGQVIPVDKKYIKDNAPFVVQIYKKNDVLQTLMNDFQILPIGGVYELHAGDNIYLKFNSKDHIQKNNTYWGIILMPDLPFIS | – | – | 6
